Changes are numbered by the printed parent chain. Numbers in names are those of the source.
What was measured:
Assay type in all cases: biochemical, human
[1] = substrate: O=[N+]([O-])c1ccc(O)cc1; assay: Substrate kinetics of recombinant SULT1A1*3; conditions: other: recombinant SULT1A1*3; 0.02 to 5.0 μM 4-nitrophenol; mean±SEM of nine
Protocol: (§1) Unless otherwise stated, concentrations of 4-nitrophenol and PAPS were 4 μM and 0.4 μM, respectively. Substrate kinetic experiments were conducted in the presence of a series of concentrations of 4-nitrophenol and PAPS to make it possible to calculate apparent Km values. Enzyme activity was expressed as nmoles of sulfate conjugated product formed per hr of incubation. Protein concentrations were measured by the dye-binding method of Bradford with bovine serum albumin (BSA) as a standard.
(§2) The concentration of 4-nitrophenol used to study each recombinant protein was the same as was used in the thermal stability experiments. All assays for the determination of apparent Km values, thermal stability or DCNP inhibition were performed in triplicate, and all experiments were performed at least three times, i.e., each of the data points shown subsequently represents the average of at least nine separate assays.
(§3) Apparent Km values were calculated by using the method of Wilkion with a computer program written by Cleland. […] Statistical comparisons of data were performed by ANOVA with the StatView program, version 4.5 (Abacus Concepts, Inc., Berkeley, Calif.).
(§4) Expression constructs for each of the common (frequencies≧1%) allozymes for SULT1A1 and SULT1A2 were used to transfect COS-1 cells. Selected biochemical and physical properties of the expressed enzymes were then determined. […]

[2] = substrate: O=[N+]([O-])c1ccc(O)cc1; assay: Substrate kinetics of recombinant SULT1A1*1; conditions: other: recombinant SULT1A1*1; 0.02 to 5.0 μM 4-nitrophenol; mean±SEM of nine
Protocol: as §1, §2, §3, §4

[3] = substrate: O=[N+]([O-])c1ccc(O)cc1; assay: Substrate kinetics of recombinant SULT1A2*1; conditions: other: recombinant SULT1A2*1; 0.08 to 10.0 μM 4-nitrophenol; mean±SEM of nine
Protocol: as §1, §2, §3, §4

[4] = substrate: O=[N+]([O-])c1ccc(O)cc1; assay: Substrate kinetics of recombinant SULT1A2*3; conditions: other: recombinant SULT1A2*3; 0.08 to 10.0 μM 4-nitrophenol; mean±SEM of nine
Protocol: as §1, §2, §3, §4

[5] = substrate: O=[N+]([O-])c1ccc(O)cc1; assay: Substrate kinetics of recombinant SULT1A2*2; conditions: other: recombinant SULT1A2*2; 1.0 to 1000 μM 4-nitrophenol; mean±SEM of nine
Protocol: as §1, §2, §3, §4

[6] = substrate: O=[N+]([O-])c1ccc(O)cc1; assay: Substrate kinetics of recombinant SULT1A3; conditions: other: recombinant SULT1A3; 3.9 to 3000 μM 4-nitrophenol; mean±SEM of nine

B1: SULT1A1*3 (Homo sapiens) (protein)
chain: MELIQDTSRPPLEYVKGVPLIKYFAEALGPLQSFQARPDDLLISTYPKSGTTWVSQILDMIYQGGDLEKCHRAPIFMRVPFLEFKAPGIPSGMETLKDTPAPRLLKTHLPLALLPQTLLDQKVKVVYVARNAKDVAVSYYHFYHMAKVHPEPGTWDSFLEKFMVGEVSYGSWYQHVQEWWELSRTHPVLYLFYEDMKENPKREIQKILEFVGRSLPEETVDFVVQHTSFKEMKKNPMTNYTTVPQEFMDHSISPFMRKGMAGDWKTTFTVAQNERFDADYAEKMAGCSLSFRSEL
notes: made in house; host or cells: COS-1 cells, pCR3.1 vector, unpurified cytosol
- Km [1]: 0.31 ± 0.01 µM

B2: SULT1A1*1 (Homo sapiens) (protein)
chain: B1 chain
notes: as for B1
- Km [2]: 0.88 ± 0.07 µM

B3: SULT1A2*1 (Homo sapiens) (protein)
chain: MELIQDISRPPLEYVKGVPLIKYFAEALGPLQSFQARPDDLLISTYPKSGTTWVSQILDMIYQGGDLEKCHRAPIFMRVPFLEFKVPGIPSGMETLKNTPAPRLLKTHLPLALLPQTLLDQKVKVVYVARNAKDVAVSYYHFYHMAKVYPHPGTWESFLEKFMAGEVSYGSWYQHVQEWWELSRTHPVLYLFYEDMKENPKREIQKILEFVGRSLPEETVDLMVEHTSFKEMKKNPMTNYTTVRREFMDHSISPFMRKGMAGDWKTTFTVAQNERFDADYAKKMAGCSLSFRSEL
notes: as for B1
- Km [3]: 8.70 ± 1.10 µM

B4: SULT1A2*3 (Homo sapiens; P19L) (protein)
chain: B3 chain with P19L
notes: as for B1
- Km [4]: 5.65 ± 1.14 µM

B5: SULT1A2*2 (Homo sapiens; I7T/N235T) (protein)
chain: B3 chain with I7T, N235T
notes: as for B1
- Km [5]: 373 ± 33 µM

B6: SULT1A3 (Homo sapiens) (protein)
chain: MELIQDTSRPPLEYVKGVPLIKYFAEALGPLQSFQARPDDLLINTYPKSGTTWVSQILDMIYQGGDLEKCNRAPIYVRVPFLEVNDPGEPSGLETLKDTPPPRLIKSHLPLALLPQTLLDQKVKVVYVARNPKDVAVSYYHFHRMEKAHPEPGTWDSFLEKFMAGEVSYGSWYQHVQEWWELSRTHPVLYLFYEDMKENPKREIQKILEFVGRSLPEETMDFMVQHTSFKEMKKNPMTNYTTVPQELMDHSISPFMRKGMAGDWKTTFTVAQNERFDADYAEKMAGCSLSFRSEL
notes: as for B1
- Km [6]: 4960 ± 810 µM

From patent publication US20040235098A1, “Sulfotransferase sequence variants” (Mayo Foundation for Medical Education and Research, a …, priority 1998, published 2004)
